Measurements taken from US12371456B2, “Proteins for the treatment of epithelial barrier function disorders” (Genevive, Inc., priority 2017, dated 2025).

Columns and labels:
[1] = tested on: DSS model of inflammatory bowel disease; test: DSS model: colon length and colon weight to length ratio; type: in vivo, C57BL/6 mice; settings: DSS treated mice
Procedure: (§1) Eight-week old C57BL/6 mice were housed 5 animals were cage and given food and water ad libitum for 7 days. Following the 7-day acclimation period, treatments were initiated concurrently with addition of 2.5% DSS to the drinking water. […] The mice were treated with 2.5% dextran sodium sulfate (DSS) in their drinking water for 6 days. Treatments were continued with SG-14 or […]-GLP2 twice a day (b.i.d.) in the morning and evening (every 8 and 16 hr) with i.p. injections at 50 nmoles/kg. Fresh 2.5% DSS drinking water was prepared every 2 days. Colon length was measured in mice included in the DSS model described in Example 7. […] The graphs in FIG. 10 and FIG. 11 represent data pooled from the single experiment (n=10).

[2] = tested on: LPS binding protein (LBP); test: DSS model: LPS binding protein (LBP) in serum by ELISA; type: in vivo, C57BL/6 mice; settings: 50 nmoles/kg i.p. b.i.d., 2.5% DSS; FIG. 7
Procedure: (§2) Eight-week old C57BL/6 mice were housed 5 animals were cage and given food and water ad libitum for 7 days. Following the 7-day acclimation period, treatments were initiated concurrently with addition of 2.5% DSS to the drinking water. […] The mice were treated with 2.5% dextran sodium sulfate (DSS) in their drinking water for 6 days. Treatments were continued with SG-14 or Gly2-GLP2 twice a day (b.i.d.) in the morning and evening (every 8 and 16 hr) with i.p. injections at 50 nmoles/kg. Fresh 2.5% DSS drinking water was prepared every 2 days.
SG-14 was also assessed for its effects on the levels of LPS binding protein (LBP) in the blood of the DSS animal with and without SG-14 administration. LPS binding protein (LBP), which has been linked to clinical disease activity in subjects with inflammatory bowel disease, was also measured by ELISA in the serum of mice tested in the DSS model described in Example 7. […] Results are shown in FIG. 7, and are presented as mean f SEM. The graph in FIG. 7 represents data pooled from the single experiment (n=10).

muc2 = muc2 gene expression in epithelial cell monolayer (qRT-PCR); type: cell-based, human; settings: SG-14 1 pg/ml (40 nM) 6 hours prior to HK E. coli for 24 hours; p=0.87; FIG. 4
Procedure: Gene expression was measured in the epithelial cell monolayer from the apical chamber of the co-culture TEER assay described in Example 2. Total RNA was isolated from the epithelial cell monolayer, cDNA was synthesized. qRT-PCR was performed on cDNA generated from the HCT8 & HT29-MTX cells treated with SG-14 ([…]; 40 nM) for 6 hours prior to addition of HK E. coli for 24 hours. muc2 gene expression is graphed as mean fold change ±SEM. Statistical analysis was performed by a one-way ANOVA compared to HK E. coli and a Fishers LSD test was used for multiple comparisons.

[3] = tested on: HCT8 enterocyte and HT29-MTX goblet cell lines; test: Oris Cell Migration assay (epithelial cell wound healing); type: cell-based, human; settings: 48 hours; SG-14 1 μg/ml, EGF 30 ng/ml, staurosporine 100 nM; FIG. 5
Source text: The 96 well Oris Cell Migration assay containing plugs preventing cell attachment in the center of each well was used according to the manufacturer's instructions (Platypus Technologies, Madison, WI). The migration assay plates were warmed to room temperature prior to use and plugs were removed from 100% confluence wells prior to cell addition. The HCT8 enterocyte and HT29-MTX goblet cell lines were used at a 9:1 ratio with a total of 5×10^4 total cells added per well (4.5×10^4 HCT8 cells and 0.5×10^4 HT29-MTX cells). Cells were incubated at 37° C.+5% CO2 for 24 hours. Plugs were then removed from all control and sample wells. Control wells included cells treated with the diluent vehicle as the blank, 30 ng/ml epidermal growth factor (EGF) as the positive control, and 100 nM staurosporine as the negative control, all diluted in cRPMI. Sample wells contained SG-14 protein at a concentration of 1 μg/ml diluted in cRPMI. 100% and 0% wells were cultured in cRPMI. […] The green fluorescent viability dye […] was added to all wells at a concentration of […] in PBS containing 0.9 mM CaCl2) and 0.5 mM MgCl2, incubated for 30 min at 37° C.+5% CO2, the dye was removed and cells were washed in PBS containing 0.9 mM CaCl2) and 0.5 mM MgCl2 and fluorescence was measured. […] Samples were normalized between 100% and 0% samples and values expressed as a percent growth.

[4] = tested on: DSS model of inflammatory bowel disease; test: DSS model: body weight; type: in vivo, C57BL/6 mice; settings: 50 nmoles/kg i.p. b.i.d., 2.5% DSS; FIG. 8
Procedure: as §1, with “days. Body weight” for “days. Colon length”, “measured daily from” for “measured in”, “in this Example. Percent change from starting weight on day 0 was determined for each mouse.” for “in Example 7.”, “The graph” for “The graphs”, “FIG. 8 represents” for “FIG. 10 and FIG. 11 represent”

[5] = tested on: DSS model of inflammatory bowel disease; test: DSS model: colonic tissue histopathology score; type: in vivo, C57BL/6 mice; settings: FIG. 12A
Procedure: as §2
Colon tissue was collected from mice in the DSS model described in this Example 7. Tissues were fixed in 10% formalin, processed for paraffin embedding and sectioned. Tissue sections were stained with Hematoxylin and Eosin and scored for pathology by a pathologist specializing in gastrointestinal disease. The scoring system used multiple pathology readouts including inflammation, edema, transmural inflammation, mucosal hyperplasia, dysplasia, loss of mucosal architecture, the extent of tissue affected, and the extent of tissue affected by the most severe pathology. Each readout was scored on a scale of 0-4 and a total score was generated by totaling all readout values for each treatment. […] The graph in FIG. 12A and images in […] represent data from the single experiment (n=10).

[6] = tested on: HCT8 enterocytes and HT29-MTX goblet cells (epithelial monolayer) co-cultured with U937 monocytes; test: Co-culture trans-epithelial electrical resistance (TEER) assay, barrier disruption by heat killed E. coli; type: cell-based, human
Procedure: Assays were performed as described below in trans-well plates where co-cultures of multiple cell types were performed utilizing a permeable membrane to separate cells. In the apical (top) chamber, human colonic epithelial cells, consisting of a mixture of enterocytes and goblet cells, were cultured until cells obtained tight junction formation and barrier function capacity as assessed by measurement of trans-epithelial electrical resistance (TEER). In the basolateral chamber, monocytes were cultured separately. Epithelial cells were primed with inflammatory cytokines.
Cell culture. The HCT8 human enterocyte cell line (ATCC Cat. No. CCL-244) was maintained in RPMI-1640 medium supplemented with 10% fetal bovine serum, 100 IU/ml penicillin, 100 µg/ml streptomycin, 10 µg/ml gentamicin and 0.25 µg/ml amphotericin (cRPMI). HT29-MTX human goblet cells (Sigma-Aldrich (St. Louis, MO; Cat. No. 12040401) were maintained in DMEM medium with 10% fetal bovine serum, 100 IU/ml penicillin, 100 µg/ml streptomycin, 10 µg/ml gentamicin and 0.25 µg/ml amphotericin (cDMEM). Epithelial cells were passaged by trypsinization and were used between 5 and 15 passages following thawing from liquid nitrogen stocks. U937 monocytes (ATCC Cat. No. 700928) were maintained in cRPMI medium as a suspension culture, and split by dilution as needed to maintain cells between 5×10^5 and 2×10^6 cells/ml. U937 cells were used up to passage 18 following thawing from liquid nitrogen stocks.
Epithelial cell culture. A mixture of HCT8 enterocytes and HT29-MTX goblet cells were plated at a 9:1 ratio, respectively, in the apical chamber of the transwell plate as described previously (Berget et al., 2017, Int J Mol Sci, 18:1573; Beduneau et al., 2014, Eur J Pharm Biopharm, 87:290-298). […] Epithelial cells were trypsinized from culture flasks and viable cells determined by trypan blue counting. […]
Co-culture assay. […] Trans-epithelial electrical resistance (TEER) readings were measured after the IFN-γ treatment and were used as the pre-treatment TEER values. […]

B1: SG-14: Eubacterium eligens protein comprising SEQ ID NO:3; tested form expressed in E. coli, with exogenous GPLG at N-terminus and PHRD at C-terminus (protein)
chain: GCARNSTSTTTASGGETTITSAITKEDTDVTHADDAENYRVSITGDFTVTSDTSDGVTQSGSVYTITKAGEYTVTGLLSEGQLIVDAGNENEVTIVLNGTSITCSSGSPIYVKNASEVKIKSEENSFNEVIDNRNEATEDSSDDAGNAAIYATCDLKLVGKGALVVTGNYNNGIQSKDDLSIKNVIVKVTAVNNAVKVNDAVDIESGNIIAISAKGDGIKTSNSSISNKGNQKGIVTITSGNIDIYAACDGIDASYGADISGDGNLNIYTDTYSEYSEEVTSSGSSSGTSSGRDSSANKSASANTVSYVATSDTIANAPSGFGGGNMGSGNAPDMSNGNAPNMNGSSDRNKTGGNRPGMPGDFNESGNSSGQSYSTKGIKAESEINISGFTINICSTDDGIHANSDSGVLETGEDGKGTIVINGGSITISSGDDGMHADKQLDVNDGYINVVTSYEGLEAMTINLNGGKIYVYATDDGINACTGDGKTSPIVNVTGGYIDVTTTSGDTDGIDSNGNYVQTGGFVLVKGGSSSGNVSGSIDVDGTVTITGGTCVALGGVCETPVNSANAYVLGSVSFSSGSYSLKDSSGNEVISFTVDGSFSNGWICSDTLTTGSSYTLYRGADSIADWTQE
modifications: N-terminal GPLG and C-terminal PHRD
- Colon length ([1]; FIG. 10): prevented colon shortening
- Ratio between colon weight and length ([1]; FIG. 11): significant reduction
- Serum LBP concentration vs DSS mice treated with vehicle [2]: significant reduction
- Serum LBP concentration vs control peptide Gly2-GLP2 [2]: greater impact on LBP concentration
- muc2 gene expression vs HK E. coli without pre-treatment (muc2): slight inhibition
- Wound healing (percent growth) [3]: significant increase in growth
- Body weight (percent change from day 0) vs vehicle treated DSS mice [4]: significantly improved body weight
- Colon pathology scores vs positive control Gly2-GLP2 [5]: further reduced colon pathology scores significantly
- Colonic pathology (total histopathology score) vs DSS ([5]; H&E sections, readouts scored 0-4): significantly reduced colonic pathology
- TEER of epithelial cell barrier (percent of untreated) ([6]; SG-14 1 pg/ml (40 nM) added 1 hour (FIG. 1A; text also says 30 minutes) before HK E. coli, HK E. coli alone 70.0%): 72.2%
- TEER of epithelial cell barrier (percent of untreated) ([6]; SG-14 1 pg/ml (40 nM) pre-incubated 6 hours before HK E. coli (FIG. 1B), without SG-14 71.4%): 78.7%
